Assay results taken from US12527862B2, “Bactericidal/permeability increasing protein for use in a method of immunization, preferably as an adjuvant in a method of vaccination” (UNIVERSITÄT REGENSBURG, priority 2018, dated 2026).

Assays:
naïve CD4+ T cells = assay: T cell activation assay with naïve CD4+ T cells and dendritic cell-derived supernatant; type: cell-based, C57BL/6J mice; details: DC supernatant after BPI 200 nM ± ODN 1826 20 nM, aCD3 and aCD28, day five, Luminex, n=3 (FIG. 13A-C)
Method: Naive CD4+CD25-CD44-CD62L+ T cells were isolated from peripheral lymph nodes and spleen of C57BL/6J mice and purified by MACS and FACS. Naïve CD4+ T cells were cultured in the presence of aCD3 and aCD28 antibodies and dendritic cell-derived supernatant after stimulation with BPI (SN BPI, BPI 200 nM) or after stimulation with ODN 1826 (SN CpG, ODN 1826 20 nM) or after stimulation with BPI and ODN 1826 (SN BPI+CpG, BPI 200 nM, ODN 1826 20 nM) or supernatant without addition of BPI or ODN 1826 (SN NT). On day five, cytokine levels were measured by Luminex. • A. Th1 differentiation as shown by detection of IFNγ (n=3). • B. Th17 differentiation as shown by detection of IL-17 (n=3). • C. […] Lymph node cells were stimulated with aCD3 and aCD28 antibodies and SN BPI or SN NT and incubated for 6h before adding a protein transport inhibitor cocktail and incubating for additional 16h. […]
To isolate CD4+SC and pLNC, cells isolated from spleen and peripheral lymph nodes (see 2.1.3) were sorted by magnetic cell sorting (MACS), using a CD4+ T cell isolation kit (#130-104-454, Miltenyi Biotec). […] The flow-through, containing unlabeled CD4+ cells, was collected and cell number was determined using a hemocytometer. CD4+SC and pLNC were used in experiments or labeled with fluorescent antibodies against non-naïve T cell markers for fluorescence activated cell sorting (FACS) of naïve CD4+ T cells. […]

CD3+CD8+ T cells = assay: Intracellular IFNγ staining of CD8+ T cells after supernatant stimulation; type: cell-based, C57BL/6J mice; details: SN BPI vs SN NT, 24h, n=4 (FIG. 13D)
Method: Naive CD4+CD25-CD44-CD62L+ T cells were isolated from peripheral lymph nodes and spleen of C57BL/6J mice and purified by MACS and FACS. Naïve CD4+ T cells were cultured in the presence of aCD3 and aCD28 antibodies and dendritic cell-derived supernatant after stimulation with BPI (SN BPI, BPI 200 nM) or after stimulation with ODN 1826 (SN CpG, ODN 1826 20 nM) or after stimulation with BPI and ODN 1826 (SN BPI+CpG, BPI 200 nM, ODN 1826 20 nM) or supernatant without addition of BPI or ODN 1826 (SN NT). On day five, cytokine levels were measured by Luminex. • A. Th1 differentiation as shown by detection of IFNγ (n=3). • B. Th17 differentiation as shown by detection of IL-17 (n=3). • C. […] Lymph node cells were stimulated with aCD3 and aCD28 antibodies and SN BPI or SN NT and incubated for 6h before adding a protein transport inhibitor cocktail and incubating for additional 16h. Cells were fixed and permeabilized and stained for CD3, CD4, CD8, and IFNγ. Lines are connecting the amount of IFNγ-producing CD3+CD8+ T cells after treatment with SN BPI or SN NT for 24h. • Bars represent the means±standard error of the mean. Statistics for comparison were performed with the paired Student's t-test (A to C) or the ratio paired Student's t-test (D).
All described work steps were conducted on ice. […]

B1: bactericidal/permeability-increasing protein (protein)
chain: RIKIPDYSDSFKIKHLGKGHYSFYSMDIREFQLPSSQISMVPNVGLKFSISNANIKISGKWKAQKRFLKMSGNFDLSIEGMSISADLKLGSNPTSGKPTITCSSCSSHINSVHVHISKSKVGWLIQLFHKKIESALRNKMNSQVCEKVTNSVSSELQPYFQTLPVMTKIDSVAGINYGLVAPPATTAETLDVQMKGEFYSENHHNPPPFAPPVMEFPAAHDRMVYLGLSDYFFNTAGLVYQEAGVLKMTLRDDMIPKESKFRLTTKFFGTFLPEVAKKFPNMKIQIHVSASTPPHLSVQPTGLTFYPAVDVQAFAVLPNSSLASLFLIGMHTTGSMEVSAESNRLVGELKLDRLLLELKHSNIGPFPVELLQDIMNYIVPILVLPRVNEKLQKGFPLPTPARVQLYNVVLQPHQNFLLFGADVVYK
modifications: labeled with NT647 (Monolith NT Protein Labeling Kit RED-NHS) in the MST experiments
notes: recombinant human BPI, aa32-487 of huBPI with N-terminal HA signal peptide, expressed in HEK293T cells
In the case of B1, the “activation and differentiation of naïve T cells into Th1, Th17 and Th22 cells (IFNγ, IL-17, IL-22)” value (naïve CD4+ T cells) is reported as “promotes not only activation but also differentiation of naïve T cells into Th1, Th17 and Th22 cells” and the “activation of CD8+ T cells (IFNγ-producing CD3+CD8+ T cells)” value (CD3+CD8+ T cells) is reported as “activation of CD8+ T cells”.
